The data set can be described thus: yeast display, Sf9 membrane polyspecificity reagent, FACS + sequencing; frameworks hold sequencing errors. A digest of the protocol:
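Polyreactivity labels are assigned by the sorting gate from which each nanobody was recovered. The gates were low and high (top ~1%), set on anti-HA fluorescence for expression and streptavidin fluorescence for reagent binding. Before sorting, galactose-induced (36–48 hours) yeast display cells were stained for 1 hour at 4 °C with 10% biotinylated, detergent-solubilized Sf9 membrane reagent.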
With “QVQLVESGGGLVQAGGSLRLSCAASGFTFSDNAMGWYRQAPGKDRELVAAISRSGGNTHYADSVKGRFTISRDNAKNTVYFQMNSLKPEDTAVYYCAARVQGRGYGYYYWGQGTQVSVSS”, the “polyreactivity (PSR sort gate)” value is on record as “high polyreactivity”.
As for “QVQLVESGGGLVQAGGSLRLSCAASGFTFSDNAMGWYRQAPGKERELVAAISRSGGRTYYADSVKGRFTISRDNAKNTVYLQMNSLKPEDTAVYYCAAYQYGMDYWGQGTQVTVSS”, the entry is “high polyreactivity”.
As for “QVQLVESGGGLVQAGGSLRLSCAASGFTFSENAMGWYRQAPGKERELVADITNGASTNYADSVKGRFTISRDNEKNTVYLLMNSLKPEDTAVYYCATDSYPGLNPDFDYWGLGTQVTVSS”, the entry is “low polyreactivity”; as for “QVQLVESGGGLVQAGGSLRLSCAASGFTFSFYAMGWYRQAPGKERELVATIRSGGRTYYADSVKGRFTISRDNAKNTVYLQRNSLKPEDTAVYYCAADDHYGRGFQYYYWGQGTQVTVSS”, “high polyreactivity”; as for “QVQLVESGGGLVQAGGSLRLSCAASGFTFSGYAMGWYRHAPGKERELVAAISSRGGRTYYADSVKGRFTISRDNAKNTVYLQMNSLKPEDTAVYYCAARSRRTDNSVQFDYWGQGTQVTVSS”, “high polyreactivity”.
As for “QVQLVESGGGLVQAGGSLRLSCAASGFTFSGYAMGWYRQAPGKERELVAASTRRTGTTYYADSVKGRFTISRDNAKNTVYLQMNSLKPEDTAVYYCNKGYPSPPAGEYGYWGQGTQVTVSS”, the entry is “high polyreactivity”; as for “QVQLVESGGGLVQAGGSLRLSCAASGFTFSGYDMGWSRQAPGKERELVAGISSGGVSTTYADSVKGRFTISRDNAKNTVYLQMNSRKPEDTAVYYCNAEWTSFDWGQGTQVTVSS”, “low polyreactivity”.
For the sequence “QVQLVESGGGLVQAGGSLRLSCAASGFTFSGYDMGWYRPAPGKERELVAGISSGGVSTTYADSVKGRFTISRDNAKNTVYLQMNSLKPEDTAVYYCNAEWTSFDWGQGTQVTVSS”, the “polyreactivity (PSR sort gate)” value is reported as “low polyreactivity”.
For “QVQLVESGGGLVQAGGSLRLSCAASGFTFSIYAMGWYRQAPGKERELVAAISGRGSSTYYADSVKGRFTISRDNAKNTVYLQMNSLKPEDTAVYYCKKFHHAYFSSVYSYAGGYWGQGTQVTVSS”, the “polyreactivity (PSR sort gate)” value is “high polyreactivity”.
As for “QVQLVESGGGLVQAGGSLRLSCAASGFTFSKYAMGCSRQAPGKETELVAAISRSAGSTYYADSVKRRFTISREYAKNTVYLQMNSLKPEDTAVYYCARDNPRRPSGYNYSGQGTQVTVSS”, the entry is “high polyreactivity”; as for “QVQLVESGGGLVQAGGSLRLSCAASGFTFSKYAMGWYRQAPGKEREFVAAISSRGGRTYYADSVKGRFTISRDNAKNTVYLQMNSLKPEDTAVYYCAVDVHLVTEYDYWGQGTQVTVSS”, “high polyreactivity”; as for “QVQLVESGGGLVQAGGSLRLSCAASGFTFSLYAMGWYRQAPGKERELVARISDSGGGTYYADSVKGRFTISRDNAKNTVYLQMNSLKPEDTAVYYCAAVSVWYVTSTSYRYWRYDYWGQGTQVTVSS”, “high polyreactivity”.
For the sequence “QVQLVESGGGLVQAGGSLRLSCAASGFTFSNNAMGRYRQAPGKEREFVAAISGTGGSTYYADSLKGRFTISRDNANNTVYLQMNSLKPEDTAVYYCARRRTYPPGRYYYWGQGTQETVSS”, the “polyreactivity (PSR sort gate)” value is given as “high polyreactivity”.
For “QVQLVESGGGLVQAGGSLRLSCAASGFTFSNYAMGWYRQAPGKERELVAAITGSGGSTFYADSVKGRFTISRDNAKNTVYLQMNSLKPEDTAVYYCAAYYWSSKYDYWGQGTQVTVSS” the value was “high polyreactivity”; for “QVQLVESGGGLVQAGGSLRLSCAASGFTFSPNAMGGYRQAPGKERELVAAISKRGASTYYADSVKGRFTISRDNAKNTVYLQMNSLKPEDTAVYYCNVGASARKPYDYWGQGTQVTVSS”, “high polyreactivity”; for “QVQLVESGGGLVQAGGSLRLSCAASGFTFSPNAMGWSTQAPGQEREVVAAITSGGNTYADSVKGRFTISRDNAKNSVYFQMNSLKPDDNAVYYCAKGEGYWYIARYLPVGYGYWGQGTQVTVSS”, “low polyreactivity”.
For “QVQLVESGGGLVQAGGSLRLSCAASGFTFSPYTMGWYRQAPGKERELVATIRYDGTSTYYADSVKGRFTISRDYAKNTVYLQMNSLKPEDTAVYFCAADIWRVYSTFYYWGQGTQVTVSS” the value was “low polyreactivity”; for “QVQLVESGGGLVQAGGSLRLSCAASGFTFSRNAMGWYRQAPGKERELVAAIDSGGSTDYADSVKGRFTISRDNAKNTVYLQMNSLKPEDTAVYYCAIASSATRYVQLRQDYDYWGQGTQVTVSS”, “low polyreactivity”.
Regarding “QVQLVESGGGLVQAGGSLRLSCAASGFTFSRNAMGWYRQAPGKERELVAAISGRTGTTYYADSVKGRFTISRDNAKNTVYLQMNSLKTVDTAVYYCAKSSGRYRSDYWGQGTQVTVSS”, the “polyreactivity (PSR sort gate)” value is given as “high polyreactivity”.
For “QVQLVESGGGLVQAGGSLRLSCAASGFTFSRNAMGWYRQAPGKERELVAAITSRGGSTYYADSVKGRFTISRDNAKNTVYLQMNSLKPEDTAVYYCNAKLISGIYTADSRSRIYDYWGQGTQVTVSS” the value was “high polyreactivity”; for “QVQLVESGGGLVQAGGSLRLSCAASGFTFSRNVLGWYRQAPGKERELIAAITTSYGGTYYADSVKGRFTISRDNAKNTVYLQMNSLKPEDTAVYYCATRYYPNTSYEYYYWGQGTQLTVSS”, “low polyreactivity”; for “QVQLVESGGGLVQAGGSLRLSCAASGFTFSRYAMGWYRQAPGKERELVAAITASGGTTYYADSVKGRFTISRDNAKNTVYLQMNSLKAEDTAVYYCNALYYYLYGYDYWGQGTQVTVSS”, “high polyreactivity”.
As for “QVQLVESGGGLVQAGGSLRLSCAASGFTFSSNAMGWYRQAPGKQRELVAAISKGGGSTYYADSVKGRFTISRDNAKNTGYLQMNSLKPEDTAVYYCAKEYDTYAYTYPYNYWGQGTQVTVSS”, the entry is “high polyreactivity”; as for “QVQLVESGGGLVQAGGSLRLSCAASGFTFSSNGMGWYRQAPGKERELVAAITRRGGSTYYADSVKGRFTISRDNAKNTVYLQMNSLKPEDTAVYYCAARRSGTYYGTYKSNGRNYWGQGTQVTVSS”, “high polyreactivity”.
For “QVQLVESGGGLVQAGGSLRLSCAASGFTFSSYAMGWYRQAPGKERELVAAISTRGGSTYYADSVKGRFTISRDNAKNTVYLQMNSLKPEETAVYYCAARYGTSYKVRWTYYAFDYWGQGTQVTVSS” the value was “low polyreactivity”.
Regarding “QVQLVESGGGLVQAGGSLRLSCAASGFTFSSYAMGWYRQAPGKERELVAAITQSGGRTYYADSVKGRFTISRDNAKNTVYLQMNSLKPEDTADYYCAADVTLWYDYWGQGTQVTVSS”, the “polyreactivity (PSR sort gate)” value is listed as “low polyreactivity”.
As for “QVQLVESGGGLVQAGGSLRLSCAASGFTFSSYYMGWYRQAPGKERELVAAITSSGDDTYYADSVKGRFTISRDNAKNTVYLQMNSLKPEDTAVYYCAAEYTEGYTHDYGGQGTQVTVSS”, the entry is “low polyreactivity”.
For the sequence “QVQLVESGGGLVQAGGSLRLSCAASGFTFSTYAMGWYRQAPGKERELVAAISRSGGSTYYADSVKGRFTISRDNAKNTVYLQMNSLKPEDTAVYYCNAEGPSYYYIIYDYWGQGTQVTGSS”, the “polyreactivity (PSR sort gate)” value is “high polyreactivity”.
In the case of “QVQLVESGGGLVQAGGSLRLSCAASGFTFSTYTMGWYRPAPGKVRELVAAITWTGGRKYYADSVKGRFTISRDNAKNTVFLQMNSLKPEDTAVYYCNRAGYTGAEVYGYDYWGQGTQVTVSS”, the “polyreactivity (PSR sort gate)” value is recorded as “high polyreactivity”.
As for “QVQLVESGGGLVQAGGSLRLSCAASGFTFSVYVIGWYRQAPGKERELVAAISSGGDTTYADSVKGRFTISRDNAKNTVYLQMNSLKPEDTAVYYCADYRVILYYLYDYWGQGTQVTVSS”, the entry is “low polyreactivity”; as for “QVQLVESGGGLVQAGGSLRLSCAASGFTFSWYAMGWYRQAPGKERELVAAISLSGDRTYYADSVKGRFTISRDNANNTVYLQMNSLKPEDTAVYYCVFAFEYWGQGTQVTVSS”, “low polyreactivity”; as for “QVQLVESGGGLVQAGGSLRLSCAASGFTFSWYAMGWYRQAPGKERELVAVITGAGITDYADSVKGRFTISRDNAKNTVYLQMNSLKPEDTAVYYCNAKSDRGVSGSGSGAYDYWGQGTQVTVSS”, “low polyreactivity”.
As for “QVQLVESGGGLVQAGGSLRLSCAASGFTFSYNTMGWYREAPGKERELVAAISRSGGRTFYADSVKGRFTISRDNAKNTVYLQMNSLKPEDTAVYYCARPWFDYWGQGTQVTVSS”, the entry is “high polyreactivity”.
As for “QVQLVESGGGLVQAGGSLRLSCAASGFTFSYNTMGWYRQAPGKERELVAAIDGSGGSTYYADSVKGRFTISRDNAKNTVYLQMNSLKPEDTAVYYCAAEWYRGGEYRRYDYWGQGTQVTVSS”, the entry is “high polyreactivity”; as for “QVQLVESGGGLVQAGGSLRLSCAASGFTFSYYAKGWYRQAPGKERELVARISFSGTRTYYADSVKGRFTISRDNAKKTVYLQMKSLKPEDTAVSYWARRPGAWKYVYSGDYWGQGTQVTVSS”, “high polyreactivity”.
For “QVQLVESGGGLVQAGGSLRLSCAASGFTFSYYAKGWYRQAPGKERELVAVISDRGGITYYADSVKGRFTISRDNAKNTVYLQMNSLKPEDTAVYYCAAQNPRYNDRYYYWGQGTQVTVSS”, the “polyreactivity (PSR sort gate)” value is given as “low polyreactivity”.
As for “QVQLVESGGGLVQAGGSLRLSCAASGFTFSYYAMGWYRQAPGKERELVAAIRGGGSTYADSVKGRFTISRDNAKNTVYLQMHSLKPEDTAVYYCAARYSGSPYPTRRYDYWGQGTQVTVSS”, the entry is “high polyreactivity”; as for “QVQLVESGGGLVQAGGSLRLSCAASGFTFSYYAMGWYRQAPGKERELVAAISWNGGSTYYADSVKGRFTISRDNAKNTVYLQMNCLKPEDTAVYYCAADSLLYYYDTGYEYWGQGTQVTVSS”, “high polyreactivity”.
As for “QVQLVESGGGLVQAGGSLRLSCAASGFTFSYYAMGWYRQAPGKERELVASISRSGNTYYADSVKGRFTISRDNAKNSVYLQMNSLKPEDTAVYYCAAAYKSYYLDGTYYYWGQGTQVTVSS”, the entry is “high polyreactivity”; as for “QVQLVESGGGLVQAGGSLRLSCAASGFTFSYYGMGWYRQAPGKERELVAAISWSGGRTYYADSVKGRFTISRDNAKNTVYLQMNSLKPEDTAVYYCAASAPRGYGYKYYYWGQGTQVTVSS”, “high polyreactivity”.
For the sequence “QVQLVESGGGLVQAGGSLRLSCAASGFTFSYYTMGWYRQAPGKERELVAAISSTGVSTYYADSVKGRFTISRDNAKNTVYLQMNSLKPEDTAVYYCAADYYGVYEYYYWGQGTQVTVSS”, the “polyreactivity (PSR sort gate)” value is recorded as “high polyreactivity”.
